Here are results for 5 molecules from article PMC10563435, “Anti-GARP Antibodies Inhibit Release of TGF-β by Regulatory T Cells via Different Modes of Action, but Do Not Influence Their Function In Vitro” (ImmunoHorizons, 2023).

Conditions in all cases: both partners purified
For experiment [1], the target named is T1, GARP extracellular domain (aa 20-627), Fc-His part cleaved off (UniProt Q14392).
T1 construct: GARP (LRRC32) extracellular domain, aa 20-627; also called LRRC32; GARP-Fc-His; source: HEK293-E6, transiently transfected, purified from supernatant (Ni-NTA, SEC; Fc-His removed with papain and protein A beads); not shown: Fc (human IgG1), C-terminal, cleaved; His tag, C-terminal, cleaved
T1 sequence (Q14392 20-627): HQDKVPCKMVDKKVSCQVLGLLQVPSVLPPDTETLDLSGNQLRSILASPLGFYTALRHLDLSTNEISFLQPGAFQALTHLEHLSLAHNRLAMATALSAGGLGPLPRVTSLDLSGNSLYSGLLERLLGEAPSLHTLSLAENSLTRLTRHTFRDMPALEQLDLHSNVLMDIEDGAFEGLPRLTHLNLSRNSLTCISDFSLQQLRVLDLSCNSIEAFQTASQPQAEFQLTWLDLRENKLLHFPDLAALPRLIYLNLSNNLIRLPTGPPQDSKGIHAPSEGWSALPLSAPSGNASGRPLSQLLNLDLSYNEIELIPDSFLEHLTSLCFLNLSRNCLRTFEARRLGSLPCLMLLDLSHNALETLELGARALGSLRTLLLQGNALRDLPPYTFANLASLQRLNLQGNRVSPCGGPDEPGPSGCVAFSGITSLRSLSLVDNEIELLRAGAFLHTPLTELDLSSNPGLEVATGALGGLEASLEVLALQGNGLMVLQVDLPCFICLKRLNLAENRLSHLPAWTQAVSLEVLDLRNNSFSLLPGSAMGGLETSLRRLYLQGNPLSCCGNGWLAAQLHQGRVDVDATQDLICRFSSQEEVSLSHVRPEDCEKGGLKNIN
In words: BLI; Abs (10 µg/ml) captured for 180 s on AMC or AHC (anti-murine or anti-human IgG Fc capture) tips; 10 µg/ml GARP, GARP/L-TGF-β or L-TGF-β in solution for 180 s, 600 s dissociation; PBS.

Experiment [2] has as its target T2, His-L-TGF-β1 (N-terminal His tag followed by aa 30-390 of L-TGF-β1) (Homo sapiens (deposit 8C7H), UniProt P01137).
T2 construct: latent TGF-β1 (LAP and mature TGF-β), aa 30-390; The introduction says that the proprotein is cleaved by a furin-like convertase into LAP and mTGF-β, which stay noncovalently associated; also called latent form of TGF-β; source: HEK293-E6, transiently transfected, purified from supernatant (Ni-NTA, SEC)
The experiment is described as above.

For experiment [3], the target named is T3, GARP/L-TGF-β complex (recombinant) (Homo sapiens (deposit 8C7H), UniProt Q14392;P01137).
T3 construct: GARP (LRRC32) extracellular domain, aa 20-627; latent TGF-β1 (LAP and mature TGF-β), aa 30-390; The introduction says that L-TGF-β is linked to GARP by two disulfide bonds and is cleaved into LAP and mTGF-β; also called L-TGF-β/GARP complex; GARP-Fc-His/L-TGF-β; source: HEK293-E6, transiently transfected, purified from supernatant (Ni-NTA, SEC; Fc-His removed with papain and protein A beads); not …
In words: cryo-EM structure; GARP/L-TGF-β incubated 30 min at 4°C with an excess of Fab, complex purified by SEC in 15 mM HEPES (pH 7.5), 100 mM NaCl; LHG-10 map 2.7 Å with atomic model; 28G11 map 7.5 Å with docked models of PDB 6GFF. Background: In gel filtration, larger molecules generally elute earlier.

Experiment [4] addresses T4, L-TGF-β1 (aa 30-390), as it stands in the GARP/L-TGF-β complex (UniProt P01137).
T4 construct: latent TGF-β1 (LAP and mature TGF-β), aa 30-390; Untagged construct, used only within the complex m3; The introduction says it is cleaved into LAP and mTGF-β; also called LAP and mTGF-β; source: HEK293-E6, transiently transfected, purified as the complex with GARP
Described as above.

Experiment [5] deals with T3, GARP/L-TGF-β complex (recombinant). The experiment in a line: BLI; Abs (10 µg/ml) captured for 180 s on AMC or AHC (anti-murine or anti-human IgG Fc capture) tips; 10 µg/ml GARP, GARP/L-TGF-β or L-TGF-β in solution for 180 s, 600 s dissociation; PBS. Background: In BLI a coated tip is dipped into the sample, and binding shifts an interference pattern.

T2 sequence (P01137 30-390): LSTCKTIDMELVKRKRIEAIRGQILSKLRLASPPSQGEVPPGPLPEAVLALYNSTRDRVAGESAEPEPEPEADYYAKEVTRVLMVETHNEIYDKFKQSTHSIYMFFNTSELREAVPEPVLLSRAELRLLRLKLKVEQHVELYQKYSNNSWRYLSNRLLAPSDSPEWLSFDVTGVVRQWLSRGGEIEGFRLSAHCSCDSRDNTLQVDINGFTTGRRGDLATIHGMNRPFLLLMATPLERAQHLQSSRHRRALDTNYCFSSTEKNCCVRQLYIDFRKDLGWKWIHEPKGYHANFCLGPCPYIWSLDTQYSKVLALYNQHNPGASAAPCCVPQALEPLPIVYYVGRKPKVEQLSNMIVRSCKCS
T4 sequence (P01137 30-390, one chain of several): as the sequence (P01137 30-390) above

B1: 28G11 (anti-L-TGF-β / anti-LAP Ab), full-length antibody (antibody, V domains shown)
VH: EVKLVESGGGLVQPGGSLSLSCAASGFTFTDYYMSWVRQPPGKALEWLGFIRNKPNGYTTEYSASVKGRFTISRDNSQSILYLQMNVLRAEDSATYYCARYTGGGYFDYWGQGTTLTVSS
VL: DIQMTQTTSSLSASLGDRLTISCRASQDISNYLNWYQQKPDGTVKLLIYYTSRLHSGVPSRFSGSGSGTDYSLTISNLEQADIATYFCQQGDTLPWTFGGGTKLEIK
notes: A cryo-EM map of its Fab complex is deposited in EMDB, without coordinates; source: HEK293-E6, transiently transfected, purified (protein A MabSelect SuRe)
With B1, the binding result is given as “no binding (tested: 10 µg/ml)” in experiment [1] and “binds” in experiment [2].

B2: Fab 28G11 (Fab, V domains shown)
VH: B1 VH
VL: B1 VL
notes: Fab part of the heavy chain of m5; The cryo-EM map is deposited in EMDB, without coordinates; As the light chain of m5; source: HEK293-E6 antibody cleaved with immobilized papain, Fc removed with protein A beads
B2: in experiment [3], the stoichiometry N – broadly, a count of units in the complex or per binding partner – is 1. Moreover, in experiment [4], the binding result is on record as “binds”.

B3: LHG-10 (anti-L-TGF-β/GARP Ab), full-length antibody (antibody, V domains shown)
VH: EVQLVQPGAELRNSGASVKVSCKASGYRFTSYYIDWVRQAPGQGLEWMGRIDPEDGGTKYAQKFQGRVTFTADTSTSTAYVELSSLRSEDTAVYYCARNEWETVVVGDLMYEYEYWGQGTQVTVSS
VL: DIQMTQSPSSLSASLGDRVTITCQASQSISSYLAWYQQKPGQAPNILIYGASRLKTGVPSRFSGSGSGTSFTLTISGLEAEDAGTYYCQQYASVPVTFGQGTKVELK
notes: source: HEK293-E6, transiently transfected, purified (protein A MabSelect SuRe)
In the case of B3, the binding result in experiment [5] is on record as “binds”; in experiment [1] it was “no binding (tested: 10 µg/ml)”; in experiment [2], “no binding (tested: 10 µg/ml)”.

B4: Fab LHG-10 (Fab, V domains shown)
VH: B3 VH
VL: B3 VL
notes: Fab part of the heavy chain of m8; As the light chain of m8; source: HEK293-E6 antibody cleaved with immobilized papain, Fc removed with protein A beads
With B4, the binding result in experiment [3] is given as “binds”.

B5: MHG-8 (anti-L-TGF-β/GARP Ab), full-length antibody (antibody, V domains shown)
VH: QVQLKESGPGLVAPSQSLSITCTVSGFSLTGYGINWVRQPPGKGLEWLGMIWSDGSTDYNSVLTSRLRISKDNSNSQVFLKMNSLQVDDTARYYCARDRNYYDYDGAMDYWGQGTSVTVSS
VL: DIQVTQSSSYLSVSLGDRVTITCKASDHIKNWLAWYQQKPGIAPRLLVSGATSLEAGVPSRFSGSGSGKNFTLSITSLQTEDVATYYCQQYWSTPWTFGGGTTLEIR
notes: as for B3
Turning to B5, the binding result in experiment [5] was “binds”; in experiment [1] it was “no binding (tested: 10 µg/ml)”; in experiment [2] it was “no binding (tested: 10 µg/ml)”.
